In the supplement of paper PMC10724198:
± gives the standard deviation of the averaged measurements.

Tested on: Saccharomyces cerevisiae
Experiment: protein stability index of tFT-peptide fusion (C-terminal peptide) (PSI (0-1 scale)); higher = more stable (slower turnover)
Conditions: genetic background: wild type; temperature: 30 C
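Note: PSI is a weighted mean of sequencing reads over stability bins, variants kept only with over 10 reads, mCherry proximal and sfGFP distal, peptide attached via GGGS linker.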

Point of comparison: PPPLPPPPLPGL, protein stability index 0.676 ± 0.0084. Against it:
- QKKKKTTVKKRQ — within error, 0.671 ± 0.021
- PPAPPPPLLNLP — higher, 0.714 ± 0.014
- AARRRLFSPCSP — within error, 0.626 ± 0.1
- APRSPSLRSRHP — higher, 0.743 ± 0.018
- EEHWDCEYVAFH — higher, 0.719 ± 0.015
- SLRMMKTTNAWT — within error, 0.661 ± 0.0077
- WGGGGGVWGHVV — lower, 0.603 ± 0.034
- CMFPVSHRLLYL — lower, 0.615 ± 0.047
- EGYGPSVRYRRS — within error, 0.639 ± 0.084
- KIIKIHLFWGII — lower, 0.478 ± 0.041
- PLFPPPSLLTPH — within error, 0.719 ± 0.14
- WGRRVSPVRDGR — within error, 0.671 ± 0.032
- GGLVGSSVWGWG — within error, 0.703 ± 0.04
- FALSSSLIRAFL — higher, 0.726 ± 0.00088
- VGCEGGRRGVGG — within error, 0.65 ± 0.059
- LGGTGGFRGVRG — within error, 0.691 ± 0.022
- SFHCFFTTSWYS — within error, 0.701 ± 0.11
- VTSSIQNRCTSC — within error, 0.706 ± 0.076
- GINRLRNKEKEE — higher, 0.775 ± 0.073
- GECASVFSSGFF — within error, 0.72 ± 0.17
- VSGNLITLRCFT — lower, 0.59604 ± 0.00021
- GARGGEGVSGGA — higher, 0.701 ± 0.012
- YLLLAFQRPTPG — within error, 0.694 ± 0.019
- RAWHFWVCGWRV — lower, 0.607 ± 0.041
- RLIIRYESYTSD — higher, 0.709 ± 0.013
- GCCGQGLPWNPP — lower, 0.562 ± 0.0077
- HLRIAHTPDSPR — higher, 0.703 ± 0.0082
- RALSLLSLLLNR — within error, 0.696 ± 0.022
- TRSAFPSFPTRS — within error, 0.68 ± 0.02
- VLFLESWLRFRT — within error, 0.623 ± 0.073
- ERIIGNRCYVRK — within error, 0.666 ± 0.039
- PPRSFLPPRFSW — within error, 0.702 ± 0.066
- EPEPALTSAPPA — higher, 0.715 ± 0.023
- VYRRGESRTHGD — within error, 0.682 ± 0.018
- SISRPSEHHLTQ — within error, 0.673 ± 0.023
- TVERGGSLSLVV — higher, 0.718 ± 0.026
- PSRVPTPLPHFT — higher, 0.737 ± 0.049
- APAAPLPVVSPD — within error, 0.752 ± 0.073
- LTDITGSIRNVH — within error, 0.673 ± 0.037
- DVHGETRGYGIQ — within error, 0.665 ± 0.019
- FLFKLPPPPRCH — within error, 0.678 ± 0.1
- CYGYTESKNRLD — lower, 0.6524 ± 0.0046
- LPRVPCRLAPPP — within error, 0.689 ± 0.055
- CTHCAGVLLHTL — within error, 0.636 ± 0.044
- SAFLSFLRLVFL — lower, 0.632 ± 0.011
- APLPASPPIPSS — within error, 0.662 ± 0.12
- SYVYETERNEST — higher, 0.715 ± 0.019
- LLFGMRPMLFSF — lower, 0.576 ± 0.038
- SLSIHPCHFGPS — within error, 0.671 ± 0.03
- GRKPGGGRRAPE — within error, 0.666 ± 0.028
- SLAYPPPSPPPA — within error, 0.68 ± 0.054
- SSFRRFVLVGFE — lower, 0.607 ± 0.011
- AGSCVRLGGPEW — higher, 0.745 ± 0.052
- PAPPLPLAPPPL — higher, 0.771 ± 0.025
- HSTEKGIMLNEY — within error, 0.704 ± 0.19
- LHPRPPLLPSLP — within error, 0.608 ± 0.07
- KKKKKEKKQERK — higher, 0.69526 ± 0.00024
- VRCGCDFRVSRC — within error, 0.717 ± 0.062
- PVPRVPLYFPLV — within error, 0.675 ± 0.017
- MCCSVGGLFFFF — within error, 0.649 ± 0.04
- GGQGRYSAPPSR — lower, 0.624 ± 0.02
- SLPFSPPTRSSL — higher, 0.758 ± 0.052
- RKAPLPDRGIPW — higher, 0.708 ± 0.017
- HLSWFSPFFASG — higher, 0.772 ± 0.018
- LWVGVVGRVRGV — lower, 0.6609 ± 0.0062
- IGGYNRTFELMG — within error, 0.678 ± 0.032
- PPRPLPPPPPPT — higher, 0.716 ± 0.017
- LCGGLSLPFAHV — within error, 0.691 ± 0.097
- EGSEAYQWETLG — within error, 0.681 ± 0.038
- PHTFNVRPFHPD — within error, 0.674 ± 0.034
- GPCSLVSLFAGD — within error, 0.697 ± 0.017
- FIGGCYCSVKSL — within error, 0.705 ± 0.047
- LGVWVGGRGVRG — higher, 0.747 ± 0.037
- SRLGVIRGIGLV — within error, 0.67 ± 0.025
- FCLDLLVGLVFL — lower, 0.546 ± 0.035
- FGVGGAVGWRLR — within error, 0.677 ± 0.052
- AKGVYFPIKGIY — lower, 0.6436 ± 0.004
- HYGQRKKEFRLT — higher, 0.73 ± 0.0075
- RIPTALLAPYAQ — within error, 0.649 ± 0.03
- RPPPLPPRPSPP — within error, 0.752 ± 0.12
- PLYTSFSPSFYL — within error, 0.669 ± 0.043
- KKKQMREQPKNE — higher, 0.7315 ± 0.0047
- FSGRGSSPVAVF — lower, 0.544 ± 0.035
- ESLMYGYWGFAR — within error, 0.727 ± 0.045
- PPPAPLPLPAST — lower, 0.645 ± 0.019
- GQGSSRKSTSVK — higher, 0.7114 ± 0.0041
- PPSPTPPLPSCP — within error, 0.702 ± 0.029
- SNFRDISLHAAG — within error, 0.684 ± 0.042
- CLCLTCMLDFYL — lower, 0.553 ± 0.0092
- WFDCGSACFGYL — higher, 0.782 ± 0.056
- WCKLLGGSVFGE — within error, 0.671 ± 0.023
- WGRFGYGPAVVG — within error, 0.735 ± 0.063
- FLFLFGCSPFFG — within error, 0.727 ± 0.057
- GSGVVCTMGWRL — within error, 0.6856 ± 0.0068
- GYNTSMHVQYQT — higher, 0.764 ± 0.02
- GPLPPLHPSPTI — higher, 0.725 ± 0.016
- GGFRSVCGGVNW — within error, 0.665 ± 0.011
- SPPSPPPPPPPS — within error, 0.691 ± 0.061
- DSFAIFFDWPAC — higher, 0.695 ± 0.0092
- PLVPPPADPLCV — lower, 0.63 ± 0.0071
